T1: gp68 on stably transduced HeLa cells (HCMV strain AD169, UniProt P16739 24-345)
T1 construct: whole, on cells; also called plasma membrane exposed gp68
T1 sequence: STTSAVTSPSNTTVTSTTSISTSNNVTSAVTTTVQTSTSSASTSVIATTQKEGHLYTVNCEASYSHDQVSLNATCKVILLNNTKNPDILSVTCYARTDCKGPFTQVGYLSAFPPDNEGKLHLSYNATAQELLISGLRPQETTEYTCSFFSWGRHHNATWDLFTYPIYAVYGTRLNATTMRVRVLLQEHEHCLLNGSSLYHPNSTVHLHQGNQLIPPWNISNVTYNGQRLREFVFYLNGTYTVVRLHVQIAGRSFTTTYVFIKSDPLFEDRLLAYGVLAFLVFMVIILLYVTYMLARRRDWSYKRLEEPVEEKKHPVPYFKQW

T2: soluble human ICOSL ectodomain, V5-His tagged (sICOSL-V5His) (human, UniProt O75144 19-256)
T2 construct: extracellular domain; Control protein with the same tags as the vFcγRs
T2 sequence: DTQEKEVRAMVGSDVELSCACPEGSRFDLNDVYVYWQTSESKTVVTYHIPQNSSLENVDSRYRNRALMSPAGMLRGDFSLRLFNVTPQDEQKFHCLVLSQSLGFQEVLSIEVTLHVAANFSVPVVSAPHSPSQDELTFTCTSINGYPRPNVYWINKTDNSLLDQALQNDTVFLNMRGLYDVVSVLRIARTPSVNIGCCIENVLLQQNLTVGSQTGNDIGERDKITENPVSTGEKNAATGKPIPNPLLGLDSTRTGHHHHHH

T3: gp68_ECD_7 (gp68 ΔO-glyc, 1-293 lacking 27-67aa) (HCMV strain AD169, UniProt P16739 65-292)
T3 sequence: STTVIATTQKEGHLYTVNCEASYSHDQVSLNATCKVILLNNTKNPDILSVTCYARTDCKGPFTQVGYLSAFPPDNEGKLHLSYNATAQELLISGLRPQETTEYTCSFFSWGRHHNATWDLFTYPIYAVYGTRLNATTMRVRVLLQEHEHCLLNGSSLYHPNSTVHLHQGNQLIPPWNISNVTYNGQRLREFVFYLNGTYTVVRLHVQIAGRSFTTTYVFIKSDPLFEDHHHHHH

T4: native vFcγR gp34 of HCMV AD169 (infected cells, virions) (HCMV strain AD169, UniProt P16809 24-234)
T4 construct: also called native HCMV gp34 protein; gp34/RL11
T4 sequence (looked up): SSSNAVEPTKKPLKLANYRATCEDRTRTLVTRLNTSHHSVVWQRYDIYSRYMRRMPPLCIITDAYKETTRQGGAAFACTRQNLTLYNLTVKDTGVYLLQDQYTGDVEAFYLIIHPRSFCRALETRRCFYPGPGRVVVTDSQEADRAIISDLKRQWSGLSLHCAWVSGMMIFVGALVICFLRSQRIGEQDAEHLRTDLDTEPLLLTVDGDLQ

T5: gp68_ECD_4a* (1-144aa) (HCMV strain AD169, UniProt P16739 24-144)
T5 construct: Shortened by a stop codon that arose in cloning, so a C-terminal tag is doubtful
T5 sequence: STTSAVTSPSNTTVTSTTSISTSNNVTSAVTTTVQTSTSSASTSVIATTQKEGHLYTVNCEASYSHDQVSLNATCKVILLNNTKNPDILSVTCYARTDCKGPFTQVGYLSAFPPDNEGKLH

T6: soluble gp34 wild type ectodomain, V5-His tagged (sgp34wt-V5-His) (HCMV strain AD169)
T6 construct: Entry holds signal peptide 1-23 (left out), ectodomain, V5 tag and His tag; Forms monomers, dimers and higher oligomers; also called sol gp34 wt; gp34 1-179
T6 chain: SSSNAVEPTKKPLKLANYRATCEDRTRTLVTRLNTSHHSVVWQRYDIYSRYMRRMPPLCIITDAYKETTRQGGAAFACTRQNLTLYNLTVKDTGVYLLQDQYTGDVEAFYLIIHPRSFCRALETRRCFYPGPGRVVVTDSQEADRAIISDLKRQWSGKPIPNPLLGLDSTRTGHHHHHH

T7: gp34mtrp (W65F) on stably transduced HeLa cells (HCMV strain AD169, UniProt P16809 24-234)
T7 construct: whole, on cells; also called plasma membrane exposed gp34mtrp
T7 sequence: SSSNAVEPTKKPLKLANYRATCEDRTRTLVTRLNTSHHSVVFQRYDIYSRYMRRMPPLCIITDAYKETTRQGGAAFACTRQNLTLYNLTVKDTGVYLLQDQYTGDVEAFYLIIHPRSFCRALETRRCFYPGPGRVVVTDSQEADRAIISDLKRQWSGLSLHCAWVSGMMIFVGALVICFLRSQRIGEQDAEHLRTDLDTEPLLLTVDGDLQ

T8: gp34wt on stably transduced HeLa cells (HCMV strain AD169, UniProt P16809 24-234)
T8 construct: whole, on cells; also called plasma membrane exposed gp34wt
T8 sequence: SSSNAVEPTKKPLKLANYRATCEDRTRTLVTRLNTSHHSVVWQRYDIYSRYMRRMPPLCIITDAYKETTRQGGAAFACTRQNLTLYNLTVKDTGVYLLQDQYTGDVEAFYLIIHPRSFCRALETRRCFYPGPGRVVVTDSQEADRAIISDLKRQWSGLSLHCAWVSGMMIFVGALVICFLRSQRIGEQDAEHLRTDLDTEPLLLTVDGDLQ

T9: C-reactive protein (human, UniProt P02741 19-224)
T9 construct: also called CRP; human CRP
T9 sequence: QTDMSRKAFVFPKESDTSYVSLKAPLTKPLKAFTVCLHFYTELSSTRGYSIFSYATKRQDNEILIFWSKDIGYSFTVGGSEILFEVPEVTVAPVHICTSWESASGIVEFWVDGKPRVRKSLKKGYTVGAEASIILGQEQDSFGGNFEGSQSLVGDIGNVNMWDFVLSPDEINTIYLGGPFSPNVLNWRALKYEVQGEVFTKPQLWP

B1: soluble gp34 ectodomain W65F, V5-His tagged (sgp34mtrp-V5-His) (receptor)
chain: SSSNAVEPTKKPLKLANYRATCEDRTRTLVTRLNTSHHSVVFQRYDIYSRYMRRMPPLCIITDAYKETTRQGGAAFACTRQNLTLYNLTVKDTGVYLLQDQYTGDVEAFYLIIHPRSFCRALETRRCFYPGPGRVVVTDSQEADRAIISDLKRQWSGKPIPNPLLGLDSTRTGHHHHHH
notes: signal peptide 1-23 left out; V5 and His tags are in the entry; Forms only monomers and dimers; also called sol gp34mtrp; gp34 1-179 W65F

Columns and labels:
[1] = molecular target: T1, gp68 on stably transduced HeLa cells; assay: flow cytometry, HeLa, 1 µg/ml
[2] = molecular target: T10, soluble gp68 ectodomain, V5-His tagged (sgp68-V5-His) (HCMV strain AD169, UniProt P16739 24-292); assay: ELISA
T10 construct: V5 and His tags are in the entry; also called sol gp68; sgp68wt

[3] = molecular target: T2, soluble human ICOSL ectodomain, V5-His …; assay: western blot
[4] = molecular target: T3, gp68_ECD_7 (gp68 ΔO-glyc, 1-293 lacking …); assay: ELISA, coated supernatant
gp68_ECD_wt = molecular target: T11, gp68_ECD_wt (HCMV strain AD169, UniProt P16739 24-292); assay: ELISA, coated supernatant
T11 construct: Called 'same antigen as used for immunization'; used as HEK293T supernatant; also called gp68wt extracellular domain

gp68_ECD_1 (1-201 aa) = molecular target: T12, gp68_ECD_1 (1-201 aa) (HCMV strain AD169, UniProt P16739 24-201); assay: ELISA, coated supernatant
T12 construct: signal peptide 1-23 left out

[5] = molecular target: T4, native vFcγR gp34 of HCMV AD169 …; assay: IP from infected cells; Fc-mediated background per the filing
Protocol: Finally, anti-vFcγR gp68 mAbs were used for immunoprecipitation experiments. MRC5 fibroblasts were infected with HCMV AD169wt strain or a virus mutant lacking vFcγR gp68 (Δgp68) for 4 days with MOI 3. Infected cells were metabolically labeled with ³⁵S for 2 hours at 37° C., washed and lysed using NP40-lysis buffer. Lysates were incubated with indicated mAbs or human IgG Fc-fragment to pulldown vFcγR gp68 specifically or both HCMV-encoded vFcγRs gp34, gp68 using human IgG-Fc-fragment to precipitated Fc-binding proteins. Samples were deglycosylated by EndoH and separated on SDS-page gradient gel.
MRC5 fibroblast were infected with MOI 2. Four days post infection cells were metabolically labelled and following lysates were incubated with indicated anti-gp68 mAbs or human IgG-Fc-fragment for precipitation of vFcγR gp68.

gp68_ECD_4b (1-152) = gp68_ECD_4b (1-152) (HCMV strain AD169, UniProt P16739 24-152); assay: ELISA, coated supernatant
gp68_ECD_4a* (1-144aa) = molecular target: T5, gp68_ECD_4a* (1-144aa); assay: ELISA, coated supernatant
[6] = molecular target: T6, soluble gp34 wild type ectodomain, …; assay: sgp34wt pre-incubated with mAb, ELISA on FcRn
Protocol: Furthermore, the gp34wt and FcRn interaction was investigated whereby various anti-gp34 mAbs were analyzed and their potential to block this interaction was identified. Experiments were performed as described before for IgG-blocking ELISA, but this time using immobilized FcRn as a novel gp34-ligand.
In addition, binding of sgp34wt to immobilized FcRn in absence of any mAb is depicted.

[7] = molecular target: T6, soluble gp34 wild type ectodomain, …; assay: sgp34wt pre-incubated with mAb, ELISA on CRP
Description: In addition, binding of sgp34wt to immobilized CRP in absence of any mAb is depicted.

[8] = molecular target: T7, gp34mtrp (W65F) on stably transduced …; assay: flow cytometry, HeLa, 1 µg/ml
[9] = molecular target: T8, gp34wt on stably transduced HeLa cells; assay: flow cytometry, HeLa, 1 µg/ml
[10] = molecular target: T6, soluble gp34 wild type ectodomain, …; assay: blocking of sgp34wt binding to immobilized human IgG, ELISA
Protocol: FIG. 44: IgG blocking ability by anti-gp34mtrp mAbs. vFcγR gp34 is an HCMV encoded IgG-Fc-binding. Anti-gp34mtrp-specific mAbs (in titration) were pre-incubated with recombinant, sgp34wt (constant amount 1 μg/ml) and added to IgG-immobilized ELISA plates. […] Dose-dependent potential of mAbs used for blocking is indicated. Effect by non-specific mouse IgG isotype IgG1 is shown. In addition, binding of sgp34wt to immobilized IgG in absence of any mAb is depicted.
To test if anti-gp34wt specific mAbs can interfere with IgG-binding ability of gp34 and human IgG. Therefore, recombinant, sgp34wt was pre-incubated with indicated anti-gp34wt specific mAbs, mouse IgG isotype or PBS only. Next, antibody bound sgp34wt was incubated on IgG-immobilized ELISA plates.
Anti-gp34wt-specific mAbs (in titration) were pre-incubated with recombinant, sgp34wt (constant amount 1 μg/ml) and added to IgG-immobilized ELISA plates. […] Dose-dependent potential of mAbs used for blocking is indicated. […] In addition, binding of sgp34wt to immobilized IgG in absence of any mAb is depicted.

[11] = molecular target: B1; assay: ELISA mtrp
C-reactive protein = molecular target: T9, C-reactive protein; assay: ELISA, CRP beside IgG1 and IgA

Binder	binding result [1]	binding result [2]	binding result [3]	binding result [4]	binding result (gp68_ECD_wt)	binding result (gp68_ECD_1 (1-201 aa))	binding result [5]	binding result (gp68_ECD_4b (1-152))	binding result (gp68_ECD_4a* (1-144aa))	percent blocking of gp34 FcRn-binding [6]	percent blocking of gp34-CRP-binding [7]	binding result [8]	binding result [9]	IC50 [10]	binding result [11]	binding result (C-reactive protein)
gp68.01 (antibody, V domains shown, mouse IgG1 hybridoma mAb; leader in entries) VH: EVKLLESGPELVKPGSSVKISCKASGYSFADHIILWVKQSHGKSLEWIGNINPYSGNTIYNLNFKGKATLTVDKSSSTAYMQLNSLTSEDSAVYYCARIEGYYSMDYWGQGTSVTVSS VL: DIVMTQTPLSLPVSLGDQASISCRSSQSIVHSNGNTYLEWYLQKPGQSPKVLIYKVSKRFSGVPDRFSGSGSGTDFTLKISRVEAEDMGVYYCFQGSHVPLTFGAGTKLELK	binds	binds	no binding	binds	binds	binds										
gp68.02 (antibody, V domains shown, mouse IgG1 hybridoma mAb; leader in entries) VH: EVKLLQSGPELVKPGSSVKISCKASGYSFADHIILWVKQSHGKSLEWIGNINPYSGNTIYNLNFKGKATLTVDKSSSTAYMQLNSLTSEDSAVYYCARIEGYYSMDYWGQGTSVTVSS VL: DIVLTQTPLSLPVSLGDQASISCRSSQSIVHSNGNTYLEWYLQKPGQSPKVLIYKVSKRFSGVPDRFSGSGSGTDFTLKISRVEAEDMGVYYCFQGSHVPLTFGAGTKLELK	binds	binds	no binding	binds	binds	binds										
gp68.05 (antibody, V domains shown, mouse IgG1 hybridoma mAb; leader in entries; also called anti gp68 clone 68.05) VH: QVKLEESGAELMKPGASVKISCTATGYTFSGYWIEWVKQRPGHGLEWIGEILPGSGGTNYNEKFKGKATFTADTSSNTAYMQLSSLTSEDSAVYYCARGIHYFGYYYFDYWGQGTTLTVSSAKTTPPSVY VL: DIVLTQTPSSLSASLGDRVTISCRASQDISNYLNWYQLKPDGTVKLLIYYTSRLHSGVPSRFSGSGSGTDYSLTISNLEQEDIATYFCQQGNTLPPTFGGGTKLEIKRADAAPTVS		binds	no binding	binds	binds	no binding (tested: 1 µg/ml)	binds	no binding (tested: 1 µg/ml)	no binding (tested: 1 µg/ml)							
gp68.06 (antibody, V domains shown, mouse IgG1 hybridoma mAb; leader in entries; also called anti gp68 clone 68.06) VH: QVKLEQSGAELMKPGASVKISCTATGYTFSGYWIEWVKQRPGHGLEWIGEILPGSGGTNYNEKFKGKATFTADTSSNTAYMQLSSLTSEDSAVYYCARGIHYFGYYYFDYWGQGTTLTVSSAKTTPPSVY VL: DIVLTQSPSSLSASLGDRVTISCRASQDISNYLNWYQLKPDGTVKLLIYYTSRLHSGVPSRFSGSGSGTDYSLTINNLEQEDIATYFCQQGNTLPPTFGGGTKLEIKRADAAPTVS		binds	no binding	binds	binds	no binding (tested: 1 µg/ml)	binds	no binding (tested: 1 µg/ml)	no binding (tested: 1 µg/ml)							
gp34mtrp.01 (antibody, V domains shown, mouse IgG1 hybridoma mAb; leader in entries; also called anti gp34 clone mtrp.01) VH: QVKLEESGAELVKPGASVKLSCTGSGFNIKDIYMDWVKQRPEQGLEWIGRIDPANGNSKYDPKFQGKATITVDTSSNTAYLQLSSLTSEDTAVYYCASYYGSSYNYWGQGTTLTVSS VL: DIVITQTPPSVPVTPGESVSISCRSSKSLLHSNGNTYLYWFLQRPGQSPQLLIYRMSNLASGVPDRFSGSGSGTAFTLRISRVEAEDVGVYYCMQHLEYPLTFGAGTKLELKRADAAPTVS										≤ 50%	~50%	binds	binds	0.239 mg/L	binds	
gp34mtrp.02 (antibody, V domains shown, mouse IgG1 hybridoma mAb; leader in entries; also called anti gp34 clone mtrp.02) VH: QVKLEQSGAELVKPGASVKLSCTGSGFNIKDIYMDWVKQRPEQGLEWIGRIDPANGNSKYDPKFQGKATITVDTSSNTAYLQLSSLTSEDTAVYYCASYYGSSYNYWGQGTTLTVSS VL: DIVITQTPPSVPVTPGESVSISCRSSKSLLHSNGNTYLYWFLQRPGQSPQLLIYRMSNLASGVPDRFSGSGSGTAFTLRISRVEAEDVGVYYCMQHLEYPLTFGAGTKLELKRADAAPTVS										≤ 50%	~50%	binds	binds	0.33 mg/L	binds	
B1																binds
